Test results as given in publication PMC8109025 (Bioconjugate chemistry, 2020).

Experiments:
[1] = target: 1N:1E nanobody-enzyme megamolecule (one cutinase-5F7 nanobody fusion covalently linked to one SnapTag-yCD fusion) (yeast); assay: SEC
[2] = target: 1N:1E nanobody-enzyme megamolecule (one cutinase-5F7 nanobody fusion covalently linked to one SnapTag-yCD fusion) (yeast); assay: negative-stain transmission electron microscopy
[3] = target: 1N:1E nanobody-enzyme megamolecule (one cutinase-5F7 nanobody fusion covalently linked to one SnapTag-yCD fusion) (yeast); assay: enzyme activity against protein concentration
[4] = target: 2N:1E nanobody-enzyme megamolecule (two cutinase-5F7 nanobody fusions covalently linked to one SnapTag-yCD fusion) (yeast); assay: SEC
[5] = target: 2N:1E nanobody-enzyme megamolecule (two cutinase-5F7 nanobody fusions covalently linked to one SnapTag-yCD fusion) (yeast); assay: negative-stain transmission electron microscopy
[6] = target: the molecule itself; assay: enzyme activity against protein concentration
SEC = target: the molecule itself; assay: SEC

## 1N:1E nanobody-enzyme megamolecule (one cutinase-5F7 nanobody fusion covalently linked to one SnapTag-yCD fusion)
[1]
  stoichiometry N: 2
[2]
  stoichiometry N: 2
[3]
  Kd: 38 µM

## 2N:1E nanobody-enzyme megamolecule (two cutinase-5F7 nanobody fusions covalently linked to one SnapTag-yCD fusion)
[4]
  stoichiometry N: 2
[5]
  stoichiometry N: 2

B1: SnapTag-yeast cytosine deaminase fusion protein (enzyme, UniProt Q12178 1-158, looked up)
chain: MVTGGMASKWDQKGMDIAYEEAALGYKEGGVPIGGCLINNKDGSVLGRGHNMRFQKGSATLHGEISTLENCGRLEGKVYKDTTLYTTLSPCDMCTGAIIMYGIPRCVVGENVNFKSKGEKYLQTRGHEVVVVDDERCKKIMKQFIDERPQDWFEDIGE
[6]
  Kd: 12 µM
SEC
  stoichiometry N: 2
